Laboratory results as given in patent publication US20190218253A1 (NATIONAL UNIVERSITY OF SINGAPORE, published 2019).
Square brackets hold non-standard residues; d marks the D form.

Legend:
[1] = biological target: T1, retinoblastoma binding protein 4 (RBBp4) (UniProt Q09028 1-425); assay: fluorescence polarization competition: peptide titrated into RBBp4 + C-terminal FITC-labelled WT SALL4 peptide
T1 construct: Bought protein; Crystal structure numbering runs at least over residues 33-404; also called RbAp48
Protocol: (§1) Reactions were incubated at room temperature before the plate was read with an Envision instrument (Perkin Elmer). IC₅₀ values of peptides were determined using Prism (GraphPad).

[2] = biological target: T1, retinoblastoma binding protein 4 (RBBp4); assay: fluorescence polarization competition, ratio of IC50s
Protocol: These three substitutions (Gln4Phe, Pro7Phe, and His9Trp) were incorporated into peptide 46 ([…], named FFW hereof, (SEQ ID NO: 14)).
as §1

[3] = biological target: T1, retinoblastoma binding protein 4 (RBBp4); assay: fluorescence polarization competition: peptide titrated into RBBp4 + C-terminal FITC-labelled WT SALL4 peptide; remark: listed apart in the source
[4] = biological target: T1, retinoblastoma binding protein 4 (RBBp4); assay: isothermal titration calorimetry, peptide titrated into RBBp4, 25 °C; isothermal titration calorimetry
Protocol: (§2) ITC was carried out with an Auto-iTC200 instrument from Microcal Inc. at 25° C. […] of RBBp4 in 50 mM Tris and 100 mM NaCl at pH 7.4 was loaded into the ITC cell. Sal14 peptide at […] was auto-loaded into the syringe. The titration was carried out with 18 injections of 2.4 μl, performed over a period of 30 min with stirring at 1000 rpm. The ITC data was analysed using Origin software from Microcal.

[5] = biological target: T1, retinoblastoma binding protein 4 (RBBp4); assay: cell-based or functional assay
[6] = biological target: T1, retinoblastoma binding protein 4 (RBBp4); assay: isothermal titration calorimetry, peptide titrated into RBBp4, 1:1 binding model
Protocol: as §2

[7] = biological target: T1, retinoblastoma binding protein 4 (RBBp4); assay: SPR (Biacore T200), RBBp4 amine-coupled to CM5 chip, peptide as analyte; surface plasmon resonance
Protocol: SPR studies were performed using a Biacore T200 biosensor (GE Healthsciences). ˜12,000 resonance units (RU) of RBBp4 were immobilised by amine coupling to the carboxymethylated dextran matrix of a Series S CM5 chip (Biacore, GE Healthcare). […] The association time and flow rate were set at 60 s and 30 μl/min respectively.

[8] = biological target: T1, retinoblastoma binding protein 4 (RBBp4); assay: fluorescence polarization competition; peptide titrated into RBBp4 with C-labelled FITC-SALL4 WT peptide as the displaced tracer
Protocol: (§3) FIGS. 3A-3E. […] The difference in the binding free energy (ΔΔGbind) of the alanine mutants (ΔGₘᵤₜₐₙₜ, Ala7 was mutated to glycine) and wild type (ΔG_{wild type}) was calculated (ΔΔGbind=ΔGₘᵤₜₐₙₜ−ΔG_{wild type}). ΔΔGbind was tabulated (left) and plotted in a bar chart (right). […] Mutated residues are highlighted in red. The IC₅₀ of each peptide, including WT, was determined by Fluorescence Polarization (FP). […] Polarization was measured in mP. […] Pep-1 carrier was added to the peptide to facilitate cellular penetration of the peptides.
(§4) In silico analysis using computational alanine scanning was performed on the key residues identified by the crystal contacts.

[9] = biological target: T1, retinoblastoma binding protein 4 (RBBp4); assay: as above; remark: listed apart in the source
Protocol: as §3, §4

T1 sequence (Q09028 whole entry, the tested form may be a part): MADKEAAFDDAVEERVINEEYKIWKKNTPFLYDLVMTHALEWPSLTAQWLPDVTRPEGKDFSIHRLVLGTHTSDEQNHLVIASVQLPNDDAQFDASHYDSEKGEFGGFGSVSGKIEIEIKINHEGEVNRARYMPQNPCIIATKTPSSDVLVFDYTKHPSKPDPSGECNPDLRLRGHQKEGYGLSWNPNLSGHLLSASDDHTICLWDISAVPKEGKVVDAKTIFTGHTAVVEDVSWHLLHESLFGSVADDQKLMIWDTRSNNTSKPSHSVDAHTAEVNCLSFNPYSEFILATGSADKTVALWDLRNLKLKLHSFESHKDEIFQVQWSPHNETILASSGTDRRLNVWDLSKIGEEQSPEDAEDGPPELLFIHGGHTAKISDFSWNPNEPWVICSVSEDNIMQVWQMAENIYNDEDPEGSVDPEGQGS
T1 sequence (Q09028 whole entry): as the sequence (Q09028 whole entry, the tested form may be a part) above

Binder | IC50 [1] | further results
Ac-RRKQAKPQHI-NH2 [Peptide 6 (printed Ac-…-NH2; WT without Met1 and Ser2)] | 360 nM | –
Ac-RRKQAKLQHI-NH2 (P7 mutation of peptide 6) [Peptide 33 (Ac-RRKQAKLQHI-NH2)] | 4400 nM | –
Ac-RRKQAKPEHI-NH2 [Peptide 35 (Ac-RRKQAKPEHI-NH2)] | 570 nM | –
Ac-RRKLAKPQHI-NH2 (Q4 mutation of peptide 6) [Peptide 23 (Ac-RRKLAKPQHI-NH2)] | 270 nM | –
Ac-RRKQAKPQYI-NH2 [Peptide 40 (Ac-RRKQAKPQYI-NH2)] | 2850 nM | –
Ac-RRKQAKPQFI-NH2 [Peptide 39 (Ac-RRKQAKPQFI-NH2)] | 340 nM | –
Ac-RRKQAKPAHI-NH2 [Peptide 14 (Ac-RRKQAKPAHI-NH2)] | 120 nM | –
Ac-KRKQAKPQHI-NH2 (R1 mutation of peptide 6) [Peptide 17 (Ac-KRKQAKPQHI-NH2)] | 3800 nM | –
Ac-RRKQAFPQHI-NH2 [Peptide 29 (Ac-RRKQAFPQHI-NH2)] | 530 nM | –
Ac-RRKQAKPQAI-NH2 [Peptide 15 (Ac-RRKQAKPQAI-NH2)] | 730 nM | –
Ac-RRKQAKAQHI-NH2 (Ala scan of peptide 6) [Peptide 13 (Ac-RRKQAKAQHI-NH2)] | 270 nM | –
Ac-RRKQKKPQHI-NH2 [Peptide 25 (Ac-RRKQKKPQHI-NH2)] | 380 nM | –
Ac-RRKQAVPQHI-NH2 [Peptide 27 (Ac-RRKQAVPQHI-NH2)] | 910 nM | –
Ac-RRKQAKPQVI-NH2 [Peptide 42 (Ac-RRKQAKPQVI-NH2)] | 480 nM | –
Ac-RRKFAKPQHI-NH2 [Peptide 24 (Ac-RRKFAKPQHI-NH2)] | – | fold enhancement in binding affinity over peptide 6 [2]: 7 fold; IC50 [3]: 50 nM
Ac-RRKQAKPNHI-NH2 [Peptide 36 (Ac-RRKQAKPNHI-NH2)] | 790 nM | –

Binder | IC50 [1] | further results
Ac-RRKQAKPQHA-NH2 [Peptide 16 (Ac-RRKQAKPQHA-NH2)] | 460 nM | –
Ac-RRKAAKPQHI-NH2 [Peptide 11 (Ac-RRKAAKPQHI-NH2)] | 190 nM | –
Ac-SRRKQAKPQHI-NH2 (N-terminal truncation of WT) [Peptide 5 (Ac-SRRKQAKPQHI-NH2)] | 600 nM | –
Ac-MSRRKQAKPQH-NH2 (C-terminal truncation of WT) [Peptide 2 (Ac-MSRRKQAKPQH-NH2)] | 1290 nM | IC50 [3]: 1400 nM
Ac-RRKQAK[code p]QHI-NH2 (not fully specified; printed as Ac-RRKQAKpQHI-NH2, P7 mutation of peptide 6; position 7 printed in lower case) [Peptide 31 (Ac-RRKQAKpQHI-NH2)] | 6600 nM | –
Ac-MSRRKQAKP-NH2 (C-terminal truncation of WT) [Peptide 4 (Ac-MSRRKQAKP-NH2)] | 1910 nM | IC50 [3]: 1960 nM
MSRRKQAKPQHI (As used in ITC, SPR, crystal structure and the alanine-scan FP assay; also called SALL4 WT; 12-aa SALL4 peptide) [WT SALL4 peptide (1-12 aa), MSRRKQAKPQHI] | – | Kd [4]: 1040 nM; PTEN expression by Q-PCR in SNU398 cells treated with peptide [5]: 3 fold; Ka [6]: 960000 M⁻¹; Kd [7]: 1500 nM; koff [7]: 0.026 s⁻¹; kon [7]: 16800 M⁻¹ s⁻¹; IC50 [3]: 1000 nM
MSARKAAKPQHI (One of the double mutants with the loss of only one key residue (group m57); also called SALL4 (1-12) peptide, double mutant R3A-Q6A) [mut R3A,Q6A] | – | IC50 [8]: 4.1 µM; IC50 [9]: 4.1 µM
MSRRAAAKPQHI (One of the double mutants with the loss of only one key residue (group m57); also called SALL4 (1-12) peptide, double mutant K5A-Q6A) [mut K5A,Q6A] | – | IC50 [8]: 4.4 µM; IC50 [9]: 4.4 µM
MSRRAQAKPQHI [SALL4 (1-12) peptide bearing the K5A mutation] | – | IC50 [3]: 7000 nM
MSRRKAAKPQHI [SALL4 (1-12) peptide bearing the Q6A mutation] | – | IC50 [3]: 1300 nM
MSARKQAKPQHI [SALL4 (1-12) peptide bearing the R3A mutation] | – | IC50 [3]: 3800 nM; IC50 [8]: 4.5 µM; IC50 [9]: 4.5 µM
MSRAKQAKPQHI [SALL4 (1-12) peptide bearing the R4A mutation] | – | IC50 [3]: 8900 nM
MSRAKAAKPQHI (One of the double mutants with the loss of only one key residue (group m57); also called SALL4 (1-12) peptide, double mutant R4A-Q6A) [mut R4A,Q6A] | – | IC50 [8]: 4.7 µM; IC50 [9]: 4.7 µM
Ac-RRKFAKFQWI-NH2 (Gln4Phe, Pro7Phe and His9Trp of peptide 6; also called FFW peptide) [Peptide 46 (Ac-RRKFAKFQWI-NH2), FFW] | 23 nM | fold increase in affinity compared with the 12-residue WT peptide [2]: > 56 fold

More lines, main results first:

IC50 [1] | Binder | further results
170 nM | Ac-RRKQAKFQHI-NH2 [Peptide 34 (Ac-RRKQAKFQHI-NH2)] | –
460 nM | Ac-RRKQRKPQHI-NH2 [Peptide 26 (Ac-RRKQRKPQHI-NH2)] | –
3490 nM | Ac-RRKEAKPQHI-NH2 (Q4 mutation of peptide 6) [Peptide 20 (Ac-RRKEAKPQHI-NH2)] | –
160 nM | Ac-RRKQAAPQHI-NH2 [Peptide 12 (Ac-RRKQAAPQHI-NH2)] | –
460 nM | Ac-RRKQAKPLHI-NH2 [Peptide 38 (Ac-RRKQAKPLHI-NH2)] | –
310 nM | Ac-RRKQALPQHI-NH2 [Peptide 28 (Ac-RRKQALPQHI-NH2)] | –
630 nM | Ac-RRRQAKPQHI-NH2 (K3 mutation of peptide 6) [Peptide 19 (Ac-RRRQAKPQHI-NH2)] | –
5800 nM | Ac-RRKQAKVQHI-NH2 (P7 mutation of peptide 6) [Peptide 32 (Ac-RRKQAKVQHI-NH2)] | –
350 nM | Ac-RRKQAKPVHI-NH2 [Peptide 37 (Ac-RRKQAKPVHI-NH2)] | –
590 nM | Ac-RRKQAKPQHL-NH2 (To be rechecked) [Peptide 44 (printed Ac-RRKCIAKPOHL-NH2)] | –
330 nM | Ac-RRKQARPQHI-NH2 [Peptide 30 (Ac-RRKQARPQHI-NH2)] | –
2300 nM | Ac-RKKQAKPQHI-NH2 (R2 mutation of peptide 6) [Peptide 18 (Ac-RKKQAKPQHI-NH2)] | –
410 nM | Ac-RRKVAKPQHI-NH2 (Q4 mutation of peptide 6) [Peptide 22 (Ac-RRKVAKPQHI-NH2)] | –
920 nM | Ac-RRKNAKPQHI-NH2 (Q4 mutation of peptide 6) [Peptide 21 (Ac-RRKNAKPQHI-NH2)] | –
120 nM | Ac-RRKQAKPQWI-NH2 [Peptide 41 (Ac-RRKQAKPQWI-NH2)] | fold improvement of binding affinity compared with peptide 6 [2]: 3 fold
1040 nM | Ac-MSRRKQAKPQHI-NH2 (also called WT; original 12-residue WT peptide) [Peptide 1 (Ac-MSRRKQAKPQHI-NH2)] | IC50 [3]: 1300 nM
800 nM | Ac-MSRRKQAKPQ-NH2 (C-terminal truncation of WT) [Peptide 3 (Ac-MSRRKQAKPQ-NH2)] | –
